One series concerns the target human serum albumin (Homo sapiens, UniProt P02768 P02768:25-609). As to the kind of experiment: SPR; 250 nM HSA, no significant binding. The procedure: (§1) After conjugation of the cystamine moeities to phosphoramidate bonds at the 5′ phosphate group, the aptamer was immobilized on a gold chip by depositing an aliquot of 10 nL of aptamer solution at a concentration of 10 μM onto the surface of the chip. The gold reduces the cystamine to a pair of thiols and then catalyzes the reduction reaction that results in the covalent bond between the gold surface and the thiol groups of the modified aptamers.
(§2) Solutions of 200 μL of ICAM-1 protein or human serum albumin were flown over the gold chip at a concentration of 250 nM and a flow rate of 50 μL/min using an Openplex Surface Plasmon Resonance System (Horiba, Kyoto, Kyoto, Japan). Thus, the association phase lasted for 4 minutes after injection and was immediately followed by the disassociation phase. The total resonance of the negative control aptamer was subtracted from the total resonance observed for each of the candidate aptamers. The result corresponds to the resonance contribution due to the binding of the protein to the aptamer.
In general terms: In SPR one partner is held on a chip, and binding of the other changes the refractive index at the surface.

In series [1] the target is T1, ICAM-1 (on cells) (Homo sapiens, UniProt P05362 SEQ:28-532). As to the kind of experiment: HNEpC cells, FAM-RNA 500 nM, 37 C; qPCR binding higher than to HEK293. The conditions noted are these: tags: endogenous on HNEpC (PromoCell C-21060) or H1-HeLa cells. (Real-time PCR tracks product formation cycle by cycle.)
In series [2] the target is T2, ICAM-1 extracellular domain (C-terminal His) (Homo sapiens, UniProt P05362 SEQ:1-453). Description: SPR; aptamer immobilized on gold chip; 250 nM ICAM-1. The conditions noted are these: tags: C-terminal His6; Ray-Biotech 228-21751-2. The procedure: as §1, §2
where Rmax is the maximum resonance due to binding observed, and c is the concentration of the injectant. Finally, the dissociation equilibrium constant kD was calculated as the ratio of kd over ka (see Table 2). The low nanomolar kD values obtained for the different aptamers confirm the strong binding affinity of such molecules towards ICAM-1 and validate the aptamer selection process described in Example 1. As used herein, “kd” refers to the dissociation rate, “ka” refers to the association rate, and “kD” refers to the dissociation equilibrium constant.

The target in series [3] is T2, ICAM-1 extracellular domain (C-terminal …). Description: ITC; 37 C, potassium phosphate; 1.27 nM at 33 C (tighter). The settings on record: tags: C-terminal His6; Ray-Biotech 228-21751-2. The procedure: (§3) Aptamers as disclosed herein were selected to perform at 37° C. in the SELEX selection process. Further, all experiments relating to performance of aptamers executed on cells grown in culture were performed at 37° C. as well, as this was the appropriate temperature for optimal cell growth and corresponds to body temperature. However, the aptamers are intended to function on the inner surface of the nasal cavity in vivo and said nasal cells show a slightly lower average temperature of 33° C. As such it was important to ensure that the aptamers of the present invention perform at both temperatures. Accordingly, binding analysis was executed using isothermal titration calorimetry (ITC) using Nano ITC (Low Volume of TA Instruments) and following user instructions for the NasD-4.1 aptamer (SEQ ID NO: 244) at 37° C. as well as at 33° C. Specific mutations in sequence (SEQ ID NO: 264-270) were tested to analyze the impact of temperature and secondary structure. 600 nM concentration of the NasD-4.1 aptamer was injected in 11 injections of 4.88 uL each into a 100 nM concentration of ICAM-1 receptor protein in a volume of 193 uL. The same concentration of mutant aptamer was injected into buffer, as well as buffer was injected into the same amount of protein as controls. The ITC experiments were performed at 33° C. and 37° C. in potassium phosphate buffer.
A general note: Isothermal titration calorimetry measures the heat released or taken up as one component is titrated into another.

For series [4] the target is unchanged. As to the kind of experiment: ITC; 37 C, potassium phosphate; 10 nM at 33 C. The settings on record: tags: C-terminal His6; Ray-Biotech 228-21751-2. The procedure: as §3
Series [5] shares this target. As to the kind of experiment: ITC; 37 C, potassium phosphate; 9.09 nM at 33 C. The conditions noted are these: tags: C-terminal His6; Ray-Biotech 228-21751-2. The procedure: as §3
Series [6] shares this target. As to the kind of experiment: ITC; 37 C, potassium phosphate; 14.3 nM at 33 C. The conditions noted are these: tags: C-terminal His6; Ray-Biotech 228-21751-2. The procedure:
as §3

Series [7] shares this target. As to the kind of experiment: ITC; 37 C, potassium phosphate; 8.86 nM at 33 C. The conditions noted are these: tags: C-terminal His6; Ray-Biotech 228-21751-2; label: FAM in cell assay; hairpin with dangling 5' and 3' ends. The procedure: as §3
Series [8] concerns the target T1, ICAM-1 (on cells). As to the kind of experiment: HNEpC cells, 2 h, 500 nM; RH-30 below 500 RFU. The conditions noted are these: tags: endogenous on HNEpC (PromoCell C-21060) or H1-HeLa cells; label: FAM in cell assay; hairpin with dangling 5' and 3' ends. The procedure: (§4) Fluorescein amidite (FAM)-conjugated DNA aptamers were incubated at 500 nM onto cells cultured in 24-well plates for 4 hours at 37° C. in 5% CO2. At specific timepoints (0.5h, 1h, 2h, 4h), the cell media was aspirated, and the wells were washed three times with 1× selection buffer. To elute and lyse the cells, 200ul of 6M urea was applied to the well and incubated at 37° C. for 5 minutes. The urea-aptamer solution was transferred and measured in a 96-well microplate reader at 495 nm absorbance. Samples were measured in triplicate. FIGS. 23 to 26 show the results.
Maximal binding can be seen after 2 hours, wherein the absolute number of the truncated sequence bound to HNEpC is 2.5 times of the number of the parent aptamer bound. Binding to RH-30 cells is similar for both aptamers, truncated sequence (SEQ ID NO: 244) and parent sequence (SEQ ID NO: 104) and below 500 RFU.

Series [9] deals with T2, ICAM-1 extracellular domain (C-terminal …). Description: ITC; 37 C, potassium phosphate; 37 nM at 33 C (weaker). The settings on record: tags: C-terminal His6; Ray-Biotech 228-21751-2. The procedure: as §3
For series [10] the target is unchanged. Description: ITC; 37 C, potassium phosphate; 18.1 nM at 33 C. The conditions noted are these: tags: C-terminal His6; Ray-Biotech 228-21751-2. The procedure:
as §3

Series [11] addresses T1, ICAM-1 (on cells). As to the kind of experiment: HNEpC cells, 0.5 h, 500 nM; RH-30 hardly detectable. The settings on record: tags: endogenous on HNEpC (PromoCell C-21060) or H1-HeLa cells; label: FAM. The procedure:
as §4
Maximal binding of the truncated sequence Nas.D-5 (SEQ ID NO: 245) can be observed after 0.5 hours, wherein more than 2 times of the truncated aptamers bound to HNEpC compared to the parent aptamer. Binding to RH-30 cells was hardly detectable (FIG. 25). […] The absolute number of bound oligonucleotides of the truncated aptamer (SEQ ID NO: 246) is again higher than the number of bound oligonucleotides of the parent sequence (SEQ ID NO: 108).

The target in series [12] is T2, ICAM-1 extracellular domain (C-terminal …). As to the kind of experiment: ITC; 37 C, potassium phosphate; 7.96 nM at 33 C. The settings on record: tags: C-terminal His6; Ray-Biotech 228-21751-2. The procedure:
as §3

Sequence of human serum albumin (P02768 25-609, one chain of several): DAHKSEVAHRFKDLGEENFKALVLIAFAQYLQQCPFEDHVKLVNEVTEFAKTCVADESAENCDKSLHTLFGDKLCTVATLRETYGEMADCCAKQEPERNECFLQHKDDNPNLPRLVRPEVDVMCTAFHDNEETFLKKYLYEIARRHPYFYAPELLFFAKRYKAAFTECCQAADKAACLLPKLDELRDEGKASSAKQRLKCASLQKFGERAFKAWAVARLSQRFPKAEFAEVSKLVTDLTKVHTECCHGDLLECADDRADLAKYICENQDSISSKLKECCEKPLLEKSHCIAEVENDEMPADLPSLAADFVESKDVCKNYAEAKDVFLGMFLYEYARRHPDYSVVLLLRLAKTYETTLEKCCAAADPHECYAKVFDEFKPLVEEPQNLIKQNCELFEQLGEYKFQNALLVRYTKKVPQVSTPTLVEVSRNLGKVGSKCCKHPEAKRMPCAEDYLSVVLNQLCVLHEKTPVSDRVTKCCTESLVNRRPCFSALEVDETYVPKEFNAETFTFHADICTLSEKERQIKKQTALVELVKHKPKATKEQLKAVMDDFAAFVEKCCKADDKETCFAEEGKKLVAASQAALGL
T2 sequence (P05362 28-480): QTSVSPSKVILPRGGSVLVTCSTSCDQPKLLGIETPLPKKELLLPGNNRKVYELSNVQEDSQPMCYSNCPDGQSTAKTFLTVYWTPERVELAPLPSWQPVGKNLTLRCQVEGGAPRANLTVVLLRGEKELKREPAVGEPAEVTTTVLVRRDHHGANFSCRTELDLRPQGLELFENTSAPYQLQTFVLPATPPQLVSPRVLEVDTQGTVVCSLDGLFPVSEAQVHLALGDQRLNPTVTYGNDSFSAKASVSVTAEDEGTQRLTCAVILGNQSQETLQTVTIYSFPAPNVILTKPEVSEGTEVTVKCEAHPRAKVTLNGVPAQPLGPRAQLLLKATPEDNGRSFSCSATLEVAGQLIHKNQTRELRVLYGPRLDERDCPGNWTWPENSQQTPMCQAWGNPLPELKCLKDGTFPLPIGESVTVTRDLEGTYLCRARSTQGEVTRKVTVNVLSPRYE
T1 sequence (P05362 28-532): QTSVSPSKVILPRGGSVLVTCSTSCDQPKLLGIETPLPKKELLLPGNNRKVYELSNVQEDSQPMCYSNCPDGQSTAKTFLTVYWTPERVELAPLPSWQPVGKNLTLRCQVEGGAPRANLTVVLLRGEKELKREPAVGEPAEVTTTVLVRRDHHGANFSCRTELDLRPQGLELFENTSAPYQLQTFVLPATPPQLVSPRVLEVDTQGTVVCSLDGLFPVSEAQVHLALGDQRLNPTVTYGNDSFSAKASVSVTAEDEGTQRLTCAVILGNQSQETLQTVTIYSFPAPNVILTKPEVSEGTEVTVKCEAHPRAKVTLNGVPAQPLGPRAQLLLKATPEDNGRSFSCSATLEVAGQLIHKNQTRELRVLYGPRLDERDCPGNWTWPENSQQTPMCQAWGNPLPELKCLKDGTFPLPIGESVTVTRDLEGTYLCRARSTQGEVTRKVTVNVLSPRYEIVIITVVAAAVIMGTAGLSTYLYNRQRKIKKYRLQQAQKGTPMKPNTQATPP

B1: Nas.R-8 (ssRNA)
RNA: GGGUGCAUCGUUUACGCGUAAAAAUUAAAGAGAUUAAGGUCCUUAAGCAGUUUUGUCCUGCUGCUGAGGAAGGAUAUGAG
modifications: 2'-F pyrimidines (all C and U)
Turning to B1, in the series with human serum albumin, the binding result is reported as “no binding”. In addition, the binding signal with ICAM-1 (on cells) [1] came to 12 % surface bound. In [2], this molecule registered a dissociation constant (Kd) of 28.4 nM.
With GTGCTCAGTTGTCAATCTAAGACTGCTGCTGAGGAAG (ssDNA) [NasD-4.1 State 6], binding in series [3] was characterised by a dissociation constant (Kd) of 18.6 nM.
GAGCTCAGTTGTCAATCTATGACTGCTGCTGAGGAAG (ssDNA) [NasD-4.1 State 2] came in with a Kd in [4] of 102 nM.
Regarding GTGCTCAGTTGTCAAAGAATGACTGCTGCTGAGGAAG (ssDNA) [NasD-4.1 State 7], binding in [5] was characterised by a dissociation constant (Kd) of 6.77 nM.
On to GTGCTCACTTGTCAATCTATGACTGCTGCTCAGGAAG (ssDNA) [NasD-4.1 State 3], for which the affinity in [6], expressed as Kd, was 40.4 nM.
Molecule GTGCTCAGTTGTCAATCTATGACTGCTGCTGAGGAAG (ssDNA) [Nas.D-4.1] gave an equilibrium dissociation constant (Kd) in series [7] of 11.2 nM. For the same molecule, the binding signal in the series with ICAM-1 (on cells) [8] amounted to 2.5 fold vs parent Nas.D-4.
GTGCTCACTTGTCAATCTATGACTGCTGCTGAGTAAG (ssDNA) [NasD-4.1 State 4] registered an equilibrium dissociation constant (Kd) in series [9] of 6.39 nM.
Regarding GTGGTCAGTTGTGAATCTATGACTGCTGCTGAGGAAG (ssDNA) [NasD-4.1 State 1], binding in series [10] was characterised by a dissociation constant (Kd) of 2.83 nM.

B2: Nas.R-1 (ssRNA)
RNA: GGGUGCAUCGUUUACGCGAUUAGUCUGAUAAACAAAAAGAUUUCGCUAAAAAUCAAUCUGCUGCUGAGGAAGGAUAUGAG
modifications: 2'-F pyrimidines (all C and U)
In the case of B2, the binding result with human serum albumin is on record as “no binding”. Besides, the Kd in series [2] is 64.4 nM.
Regarding GGGCGCACCGTTTACGCGTAAATCGGTCCGCTATT (ssDNA) [Nas.D-5.1], the binding signal with ICAM-1 (on cells) [11] was > 2 fold vs parent Nas.D-5.

B3: Nas.R-2 (ssRNA)
RNA: GGGUGCAUCGUUUACGCAGAUAGCAGCAGGAAUCAAGCGGUAGGAGUCUAGCAGAAGCUGCUGCUGAGGAAGGAUAUGAG
modifications: 2'-F pyrimidines (all C and U)
In the case of B3, the binding result with human serum albumin is reported as “no binding”. In addition, the binding signal with ICAM-1 (on cells) [1] is 17 % surface bound. Also, binding in series [2] was characterised by a dissociation constant (Kd) of 70.2 nM.
For GTGCTCTCTTGTCAATCTATGACTGCTGGAGAGGAAG (ssDNA) [NasD-4.1 State 5], the Kd in [12] worked out at 5.14 nM.

B4: Nas.R-4 (ssRNA)
RNA: GGGUGCAUCGUUUACGCGCAACAUAAAAAUUUAAAGUGCUCAGUUGUCAAUCUAUGACUGCUGCUGAGGAAGGAUAUGAG
modifications: 2'-F pyrimidines (all C and U)
Consider B4, for which the binding result in the series with human serum albumin is “no binding”. The binding signal with ICAM-1 (on cells) [1] was found to be 11 % surface bound. The same molecule displayed a Kd in series [2] of 44.3 nM.

Broadly, the Kd is a measure of binding affinity in units of concentration. High values mean weaker binding, low ones tighter binding.

The values above are taken from patent US20230287433, “APTAMERS FOR PERSONAL HEALTH CARE APPLICATIONS” (The Procter & Gamble Company, published 2023).
